Bounds are passed on as bounds.

For assay [1], the target named is wild-type RNAP (core RNAP with wild-type σ^70, for in vitro transcription) (E. coli) (UniProt P0A7Z4).
Assay [2] deals with Δσ1.1-RNAP (wild-type core RNAP with σ^70 lacking region 1.1) (E. coli) (UniProt P0A7Z4).
In assay [3] the target is ΔσAL RNAP (wild-type core RNAP with σ^70 lacking the acidic loop) (E. coli) (UniProt P0A7Z4).
Assay [4] has as its target β′D256A RNAP (core RNAP with β′ D256A and wild-type σ^70) (E. coli) (UniProt P0A7Z4).
The target in assay [5] is T1, RNA polymerase β subunit (E. coli, UniProt P0A8V2 1-1342).
T1 construct: RNA polymerase β subunit, E. coli; As it stands in the holoenzyme m1; also called βlobe/Si1; βgate loop (βGL)
Nature of the assay: cryo-EM structure; RP-DksA/ppGpp: RNAP (20 μM) preincubated with DksA (100 μM) and ppGpp (2 mM) 5 min at 37 °C in 10 mM HEPES pH 8.0, 50 mM NaCl, 0.1 mM EDTA, 5 mM DTT, 5 mM MgCl2, then rrnBP1 DNA (40 μM) 5 min at 37 °C; 8 mM CHAPSO; two classes, RP1-DksA/ppGpp (3.62 Å) and RP2-DksA/ppGpp (3.58 Å). The conditions noted are these: both partners purified.

The target in assay [6] is T2, RNA polymerase β' subunit (E. coli, UniProt P0A8T7 1-1407).
T2 construct: RNA polymerase β' subunit, E. coli; As it stands in the holoenzyme m1; also called β’clamp; β’clamp-toe (β’CT)
Described as above. Particulars: both partners purified.

B1: DksA (natural protein, E. coli)
chain: MQEGQNRKTSSLSILAIAGVEPYQEKPGEEYMNEAQLAHFRRILEAWRNQLRDEVDRTVTHMQDEAANFPDPVDRAAQEEEFSLELRNRDRERKLIKKIEKTLKKVEDEDFGYCESCGVEIGIRRLEARPTADLCIDCKTLAEIREKQMAG
notes: DksA used for cryo-EM, with ppGpp (2 mM) in the sample; also called global transcriptional regulator DksA
Turning to B1, the K (d,app) of DksA from inhibition of in vitro transcription from rrnBP1 (DksA 10 nM to 10 μM), +ppGpp (100 μM) in assay [1] was found to be 860 nM; in assay [3] it was 1150 nM; in assay [4], 1640 nM. In addition, the K (d,app) of DksA from inhibition of in vitro transcription from rrnBP1 (DksA 10 nM to 10 μM), −ppGpp is 2200 nM in assay [1], greater than 10 µM in assay [2], 3000 nM in assay [3] and 4.54 µM in assay [4]. The binding result in assay [5] and in assay [6] was “binds” each time.

B2: DksA D137A (natural protein)
chain: MQEGQNRKTSSLSILAIAGVEPYQEKPGEEYMNEAQLAHFRRILEAWRNQLRDEVDRTVTHMQDEAANFPDPVDRAAQEEEFSLELRNRDRERKLIKKIEKTLKKVEDEDFGYCESCGVEIGIRRLEARPTADLCIACKTLAEIREKQMAG
In assay [1], B2 registered a K (d,app) of DksA D137A from inhibition of in vitro transcription from rrnBP1 (DksA 10 nM to 10 μM), +ppGpp (100 μM) of 2440 nM and a K (d,app) of DksA D137A from inhibition of in vitro transcription from rrnBP1 (DksA 10 nM to 10 μM), −ppGpp of 3.9 µM.

(Values after publication PMC7822876, “Structural basis of ribosomal RNA transcription regulation” (Nature Communications, 2020).)
